Assay results reported in patent publication US8722052B2, “Vaccinia virus protein A46 peptide and use thereof” (priority 2008, dated 2014).

How the values were obtained:
RAW264.7 cells = assay: MTT cell viability assay, RAW264.7; assay type: cell-based, murine
Procedure: FIGS. 5A and B are bar charts showing the dose-dependent inhibitory effect of A464R on LPS-induced TNFα in murine RAW264.7 cells. A464 (SEQ ID NO. 20) was added to the cells at a concentration of 5, 20 or 50 μM 1 hour before stimulating with 100 ng/ml LPS. Supernatant was collected 24 hours after stimulation and assayed for TNFα by ELISA (A) and cells were assayed for viability by the MTT assay (B.). No peptides were added to the control wells (black bars). Data is representative of at least three experiments each performed in triplicate and is expressed as mean±s.d;
FIGS. 10A and B are bar charts showing the effect of A464 on poly(I:C)-induced TNFα in murine RAW264.7 cells. Cells were seeded in 96 well plates (1.5×10^5 cells/nil) 24 hours before treatment. A464 (SEQ ID NO. 20) was added to the cells at a concentration of 5, 20 or 50 μM 1 hour before stimulating with 25 μg/ml Poly(I:C). […] Data is representative of at least three experiments each performed in triplicate and is expressed as mean±s.d;
Cell viability was measured by assessing mitochondrial function using an MTT (3-(4,5-Dimethylthiazol-2-yl)-2,5-diphenyltetrazolium bromide) assay. […] MTT was then removed and 200 μl per well of dimethyl sulphoxide (DMSO) was added and cells incubated for 20 min at 37° C. in the dark, prior to absorbance being read at 595 nm on a spectrophotometer.

IκBα = assay: LPS-induced IκBα degradation in RAW264.7 cells, immunoblot; assay type: cell-based, murine; details: peptide 4 μM 1 h before 10 ng/ml LPS for 5, 15, 30 or 60 min
Procedure: FIGS. 25A and B are immunoblots showing the effect of A464 on LPS-induced IκBα degradation in murine RAW264.7 cells. Cells were seeded in 6-well plates at 1.5×10^5 cells/ml 24 hours prior to treatment with peptides. […] Cells were stimulated with 10 ng/ml LPS for a period of 5, 15, 30 or 60 min and then harvested on ice and lysed in 1% NP-40 containing lysis buffer. Lysates then were denatured using 5× sample buffer with DTT and resolved by SDS-PAGE. The proteins were transferred to PVDF membrane and the membrane was immunoblotted for IκBα (A). Equal protein loading was confirmed by re-probing the blot for β-actin (B). The blots shown are representative of two experiments;
RAW264.7 cells were seeded at a density of 1×10^5 cells/ml in 6 well plates. […] The protein concentration was determined by monitoring the change in the solution absorbance at 280 nm using a spectrophotometer compared to protein standards. […] Thereafter, the membranes were washed, incubated in appropriate secondary antibody and then developed using standard enhanced chemi-luminescence (ECL) reagents.
To further assay activation of NFκB, the degradation of its inhibitor IκBα, an event required for the translocation of the NFκB into the nucleus, was measured. […]

**Q.** For KYSFKLILAEYRRRRRRRRR [Peptide A464], which “toxicity (MTT) in the presence of LPS” value (RAW264.7 cells; 100 ng/ml LPS, 24 h) is on record?
**A.** no toxicity at the concentrations of 5 and 20 μM

**Q.** What about the “toxicity (MTT) in the absence of LPS” value (RAW264.7 cells; no LPS) of the same sequence?
**A.** some cytotoxicity at 20 μM

**Q.** What about the “effect on LPS-induced IκBα degradation” value (IκBα) of the same sequence?
**A.** blocked the degradation of IκBα seen at 15 and 30 min
